According to the supplement of paper PMC12764529:
± gives the half width of the 95% confidence interval.

How the values were obtained:
[1] = folding stability dG unfold from trypsin proteolysis; higher = more stable
Procedure, shortened: (§1)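 Unfolding free energy was derived, per protease or combined, by relating Bayesian-fitted K50 values from sequencing counts to a sequence-predicted unfolded-state K50 and a shared folded-state K50. The underlying digests exposed cysteine-free mini-proteins under 80 residues, in a PA-tagged cDNA display construct, to trypsin and chymotrypsin at 11 threefold-diluted concentrations and to a no-protease condition. A filter kept only designs with AlphaFold2 dimer inter-PAE above 15.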

[2] = folding stability dG unfold from chymotrypsin proteolysis; higher = more stable
Procedure, shortened: as §1

[3] = folding stability dG unfold (combined trypsin and chymotrypsin); higher = more stable
Procedure, shortened: as §1

Sequence: SAGELEVTVTVRTETRTETREEEERRRREAAPPVRLRVFFPDTGLAVELEFDANGNIVSVKVTELPEDLSAG [r5_342_TrROS_Hall]
- folding stability dG unfold [1]: 1.87 ± 0.11 kcal/mol
- folding stability dG unfold [2]: 2.67 ± 0.051 kcal/mol
- folding stability dG unfold [3]: 2.39 ± 0.1 kcal/mol

Sequence: SAGGSAGGSAGGSMTIIVKTEEEAKQLAERLKKELEELGLLENLKIEIKVIPEEDLPPESAGGSAGGSAGGS [r4_472_TrROS_Hall]
- folding stability dG unfold [1]: 1.29 ± 0.079 kcal/mol
- folding stability dG unfold [2]: 2.33 ± 0.052 kcal/mol
- folding stability dG unfold [3]: 2.09 ± 0.08 kcal/mol

Sequence: SAGGMKVYKTPDKITIELTHPETGEKAKGTYTPSTGKMTITYPNKLTVTISVDSNGNLTPVEKKPLLSAGGS [r16_127_JUSTAS]
- folding stability dG unfold [1]: 0.592 ± 0.046 kcal/mol
- folding stability dG unfold [2]: 0.577 ± 0.1 kcal/mol
- folding stability dG unfold [3]: 0.626 ± 0.069 kcal/mol

Sequence: SAGGSAKIKIITENGEELEIEVETKEELEKAVEALKKLLPPDAEIEVEVVEKDGKLIVKIKVKKKPSAGGSA [r15_80_TrROS_Hall]
- folding stability dG unfold [1]: 1.54 ± 0.13 kcal/mol
- folding stability dG unfold [2]: 2.17 ± 0.12 kcal/mol
- folding stability dG unfold [3]: 1.85 ± 0.31 kcal/mol

Sequence: SAGKKYIVVVNVDFGSPEKKESAPIVLELDEDEEVSEALAKIPGLEDVKVEVYVIEAEENPELAENPGSAGG [r19_339_TrMRF]
- folding stability dG unfold [1]: 0.31 ± 0.11 kcal/mol
- folding stability dG unfold [2]: 1.38 ± 0.083 kcal/mol
- folding stability dG unfold [3]: 0.994 ± 0.2 kcal/mol

Sequence: SAGGSAGGSASLEEIKERAREEILKKHPDLPPDEPLTVTVKDPNSSNEYTITFNADGTVVESAGGSAGGSAG [r3_441_JUSTAS]
- folding stability dG unfold [1]: 0.677 ± 0.027 kcal/mol
- folding stability dG unfold [2]: 0.814 ± 0.052 kcal/mol
- folding stability dG unfold [3]: 0.837 ± 0.098 kcal/mol

Sequence: SAGGSAGGSATTIEITLPDGTKAVTLSTTSENSILLLVTAPDSPSLGFIDKNNPNNIILLKSAGGSAGGSAG [r3_450_JUSTAS]
- folding stability dG unfold [1]: 0.467 ± 0.054 kcal/mol
- folding stability dG unfold [2]: 0.623 ± 0.1 kcal/mol
- folding stability dG unfold [3]: 0.627 ± 0.093 kcal/mol

Sequence: SAGGGTATVTTAEAELPGDVRVTTATVTLPDGSAVRVVTLSSSVPNATATVVVPLPANGPGEGVIVLPSAGG [r13_323_TrMRF]
- folding stability dG unfold [1]: 1.44 ± 0.073 kcal/mol
- folding stability dG unfold [2]: 0.785 ± 0.056 kcal/mol
- folding stability dG unfold [3]: 1.15 ± 0.069 kcal/mol

Sequence: SAGGSAMAIVEYDPDNRVRAIVYFPGEKRVALVEVDDDTATVTAVYDLSDDGVATYLDEATFEIGGSAGGSA [r2_60_TrMRF]
- folding stability dG unfold [1]: 0.896 ± 0.048 kcal/mol
- folding stability dG unfold [2]: 0.87 ± 0.043 kcal/mol
- folding stability dG unfold [3]: 0.922 ± 0.046 kcal/mol

Sequence: GFVLIPFRLDDPDVTAGEIAEEVEKALPPEYGPLRLRVFFEDGSVLELEPGEKLGEHFEPDDEILVLVEGDS [r1_56_TrMRF]
- folding stability dG unfold [1]: 1.24 ± 0.042 kcal/mol
- folding stability dG unfold [2]: 1.37 ± 0.12 kcal/mol
- folding stability dG unfold [3]: 1.22 ± 0.14 kcal/mol

Sequence: SAMTIKIEVINEKGEKIEITIPVKKEDLEKLKEEIEKELKKLAEEKGEKVKVEIVEVDENGYLKIRVYKSAG [r14_622_TrROS_Hall]
- folding stability dG unfold [1]: 2.75 ± 0.2 kcal/mol
- folding stability dG unfold [2]: 2.54 ± 0.059 kcal/mol
- folding stability dG unfold [3]: 2.73 ± 0.21 kcal/mol

Sequence: SAGGWRIKLERDPENGKIKVSIERSPNEGYATVEVKLPNGKPLEIPGPMDSPDEMEEKARDYIKKLLSAGGS [r16_319_TrROS]
- folding stability dG unfold [1]: 0.777 ± 0.09 kcal/mol
- folding stability dG unfold [2]: 1.01 ± 0.086 kcal/mol
- folding stability dG unfold [3]: 0.991 ± 0.1 kcal/mol

Sequence: SAGGSAGGSAGGWYVQIKFPNNPIYISAEEIRDNPEVLKELEDEGYPIKNIEVMKPGEGSAGGSAGGSAGGS [r10_396_TrROS]
- folding stability dG unfold [1]: 0.526 ± 0.082 kcal/mol
- folding stability dG unfold [2]: -0.5 ± 0.29 kcal/mol
- folding stability dG unfold [3]: 0.241 ± 0.14 kcal/mol

Sequence: SAGGSKKVPIKVKIEVYNKNGEKMTLEELLKKLEENAKVEKDEKGRLTLYIVNKKTNKIVKIEVEKSAGGSA [r2_234_TrROS_Hall]
- folding stability dG unfold [1]: 1.74 ± 0.18 kcal/mol
- folding stability dG unfold [2]: 1.92 ± 0.19 kcal/mol
- folding stability dG unfold [3]: 1.72 ± 0.27 kcal/mol

Sequence: SAGGSAGGSMPPNFRVMIHDDDGEERTFHMSPEDLKEFADNLPDVKVEPHPPGMMHITVRVPKSAGGSAGGS [r20_231_TrROS]
- folding stability dG unfold [1]: -0.72 ± 0.19 kcal/mol
- folding stability dG unfold [2]: 0.454 ± 0.085 kcal/mol
- folding stability dG unfold [3]: 0.101 ± 0.092 kcal/mol

Sequence: SAGGSDKVVEIPIDIPNGYTVTIRMHPDDGTARVEVSPNMPPNRVLEKIKKIFDDNGYRILPIEIVSAGGSA [r2_497_TrROS]
- folding stability dG unfold [1]: 1.2 ± 0.03 kcal/mol
- folding stability dG unfold [2]: 0.796 ± 0.053 kcal/mol
- folding stability dG unfold [3]: 1.01 ± 0.077 kcal/mol

Sequence: SAGGSAGGSAKKKVKVVEIKITYDKEKNEYYIEAKVYNENTGETKTVRIKVKLKPGQKLKFSAGGSAGGSAG [r3_1_TrROS_Hall]
- folding stability dG unfold [1]: 1.65 ± 0.041 kcal/mol
- folding stability dG unfold [2]: 1.71 ± 0.066 kcal/mol
- folding stability dG unfold [3]: 1.72 ± 0.087 kcal/mol

Sequence: SAGGSAGGSMEEVEVFELEDGTLLVLVRVDGKEELIEIPLDDLKKLPNVKEVKIFPVKKVEKPSAGGSAGGS [r12_343_TrROS_Hall]
- folding stability dG unfold [1]: 0.803 ± 0.052 kcal/mol
- folding stability dG unfold [2]: 1.43 ± 0.057 kcal/mol
- folding stability dG unfold [3]: 1.21 ± 0.086 kcal/mol

Sequence: SAGGSAGGSAPPLKIVIRIEFPDPNGKKQEYEIPADYPLEQVKDNAEEPFPGAKIENIEVVSAGGSAGGSAG [r3_60_TrROS]
- folding stability dG unfold [1]: 1.02 ± 0.057 kcal/mol
- folding stability dG unfold [2]: 1.33 ± 0.071 kcal/mol
- folding stability dG unfold [3]: 1.21 ± 0.049 kcal/mol

Sequence: SAMTVTITLPPSISPEEAKAALEAAFPGEDIQVTTTTDPNAGTLTVTVTFSSPEDAARAAALLAEVRAASAG [r14_443_JUSTAS]
- folding stability dG unfold [1]: 2.86 ± 0.046 kcal/mol
- folding stability dG unfold [2]: 4.68 ± 0.067 kcal/mol
- folding stability dG unfold [3]: 4.33 ± 0.077 kcal/mol

Sequence: SAGGSAGGLTLRLELEIRLEDGLTLRVRVEYDLETNEVKIEIELLPPAPPVEEEPEVLVVEEEESAGGSAGG [r6_926_TrROS_Hall]
- folding stability dG unfold [1]: 3 ± 0.29 kcal/mol
- folding stability dG unfold [2]: 4.28 ± 0.29 kcal/mol
- folding stability dG unfold [3]: 3.78 ± 0.41 kcal/mol

Sequence: SGYVVRIYRPNEKGEPVKIVLPDEEAEELYKELVDEEMSVEEFAERLKKLFPDAKVEVRKAEDIPPEELLSA [r9_1085_TrMRF]
- folding stability dG unfold [1]: 2.13 ± 0.07 kcal/mol
- folding stability dG unfold [2]: 1.85 ± 0.023 kcal/mol
- folding stability dG unfold [3]: 2 ± 0.058 kcal/mol

Sequence: SAGGSAGGSSVKAKLLSYSRDPTSDLVSVELLIEKSSETIPITLTVPPSEVQPGATITIEIRPSAGGSAGGS [r12_76_JUSTAS]
- folding stability dG unfold [1]: -0.616 ± 0.16 kcal/mol
- folding stability dG unfold [2]: 0.609 ± 0.11 kcal/mol
- folding stability dG unfold [3]: 0.289 ± 0.072 kcal/mol

Sequence: SAGMKKKLYSGEIKEIEEALEKGLSLEEIEEIFSKGANGSLELEEENKKIYIFALEDKKAFLLVEYNPESAG [r5_343_TrMRF]
- folding stability dG unfold [1]: 0.441 ± 0.14 kcal/mol
- folding stability dG unfold [2]: 1.46 ± 0.19 kcal/mol
- folding stability dG unfold [3]: 1.1 ± 0.26 kcal/mol

Sequence: SAGGSAGGSGMKTLTIEFPNVTLEEAKEAVLKLLEELGLEPIPLEKVTITYHPENPNVITVVESAGGSAGGS [r12_122_JUSTAS]
- folding stability dG unfold [1]: 1.5 ± 0.098 kcal/mol
- folding stability dG unfold [2]: 1.14 ± 0.12 kcal/mol
- folding stability dG unfold [3]: 1.35 ± 0.17 kcal/mol

Sequence: SARTLTITVPPGYRARVVVTLENGEPLELEVPPSESVTLTIPPGVPALVRVEVFYPDGSVGEFEVEVDDSAG [r14_568_TrMRF]
- folding stability dG unfold [1]: 4.65 ± 0.25 kcal/mol
- folding stability dG unfold [2]: 4.76 ± 0.14 kcal/mol
- folding stability dG unfold [3]: 4.79 ± 0.2 kcal/mol

Sequence: SAGGSAKKKTIELTIVIKIKKKPGETAEEIAKKILDALKKLLPPGAKIEIEVEVKDDYIVIKVKIESAGGSA [r15_739_TrROS_Hall]
- folding stability dG unfold [1]: 2.49 ± 0.14 kcal/mol
- folding stability dG unfold [2]: 2.76 ± 0.09 kcal/mol
- folding stability dG unfold [3]: 2.69 ± 0.13 kcal/mol

Sequence: SKTLTLEVEVPEGPVRIVVEASDGSRLEAEVPADEKVTFTIPIPPDIPEETKVTVRVYNPETGEVTELEASA [r9_275_TrMRF]
- folding stability dG unfold [1]: 0.353 ± 0.063 kcal/mol
- folding stability dG unfold [2]: 1.11 ± 0.069 kcal/mol
- folding stability dG unfold [3]: 0.789 ± 0.066 kcal/mol

Sequence: SAGGMPKVPVTYTVTFTLKPDGSTLTVTETFPVPEPGKPVTKEEIKQRLLDKLPPSYTITSITITRASAGGS [r16_407_JUSTAS]
- folding stability dG unfold [1]: 1.86 ± 0.03 kcal/mol
- folding stability dG unfold [2]: 2.21 ± 0.026 kcal/mol
- folding stability dG unfold [3]: 2.13 ± 0.051 kcal/mol

Sequence: SAGGSAGGSAGGGNMTITVMIPIEIPVFKYDGGKPEFEPFPIYIMVEVTVPEGAPLEEFSAGGSAGGSAGGS [r10_633_TrROS]
- folding stability dG unfold [1]: 2.1 ± 0.076 kcal/mol
- folding stability dG unfold [2]: 1.49 ± 0.027 kcal/mol
- folding stability dG unfold [3]: 1.79 ± 0.068 kcal/mol

Sequence: SAGGSAGGPLVFEADATGTAPDDKELVIERVLVVVDPVRGEAHLYARIPGTGEWRYLGTFDLKDSAGGSAGG [r6_329_TrMRF]
- folding stability dG unfold [1]: 2.91 ± 0.093 kcal/mol
- folding stability dG unfold [2]: 3.315 ± 0.023 kcal/mol
- folding stability dG unfold [3]: 3.21 ± 0.082 kcal/mol
